Here are results for one molecule from patent publication US20190016826A1 (Genentech, published 2019).

One may read the EC50 as the midpoint of the concentration-response curve.

Assay in all cases: ELISA on plate-coated HuHtrA1_PD mutants (Example 7); column head on the sheet reads YW505.94 Fab, legend paragraph 70 says IgG94
The target of one experiment is T1, N224A.
T1 construct: also called HuHtrA1_PD(N224A)
How it is done:
(§1) The mutants were expressed in E. coli and the trimers purified by size exclusion chromatography as described in Example 2. Binding was determined using an ELISA assay, which was conducted using a MAXISORP™ microtiter plate coated with HuHtrA1_PD mutants at 2 μg/ml in PBS for 1 h, followed by blocking with PBST buffer (0.5% BSA and 0.05% Tween 20 in PBS) for 1 h at room temperature. […] The plates were washed with PBT buffer (0.05% Tween 20 in PBS), and HRP-conjugated goat anti-human IgG (H+L) (Invitrogen) was added (1:5000 in PBST buffer) and incubated for 1 h. The plates were washed with PBT buffer and developed by adding tetramethylbenzidine substrate (Kirkegaard and Perry Laboratories, Gaithersburg, Md.). The absorbance at 450 nm was plotted as a function of antibody concentration in solution to determine EC₅₀ values.
(§2) In trypsin-like serine proteases these loops are known to be part of the specificity determining region that interacts with substrates.

The next experiment addresses T2, R227A.
T2 construct: also called HuHtrA1_PD(R227A)
How it is done:
as §1, §2

The next experiment deals with T3, E239A.
T3 construct: also called HuHtrA1_PD(E239A)
On the procedure: as §1, §2

A further experiment addresses T4, K241A.
T4 construct: also called HuHtrA1_PD(K241A)
How it is done: as §1, §2

A further experiment concerns the target T5, D244A.
T5 construct: also called HuHtrA1_PD(D244A)
On the procedure:
as §1, §2

For a further experiment, the target named is T6, Y325A.
T6 construct: also called HuHtrA1_PD(Y325A)
On the procedure:
as §1, §2

The next experiment addresses T7, HuHtrA1_PD(V201A) (human, UniProt F1N152 168-386 (bovine entry)).
T7 construct: Alanine mutant of HuHtrA1_PD; also called HuHtrA1 mutant V201A; not shown: thrombin cleavage site
T7 chain: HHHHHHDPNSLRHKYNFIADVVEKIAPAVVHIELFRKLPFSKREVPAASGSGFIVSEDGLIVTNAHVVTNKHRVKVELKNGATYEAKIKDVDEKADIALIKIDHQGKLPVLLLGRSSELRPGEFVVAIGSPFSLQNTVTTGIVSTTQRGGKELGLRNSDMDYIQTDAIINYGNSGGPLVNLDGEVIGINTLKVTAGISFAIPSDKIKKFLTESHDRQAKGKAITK
On the procedure: as §1, §2

In another experiment the target is T8, HuHtrA1_PD(T223A) (human, UniProt F1N152 168-386 (bovine entry)).
T8 construct: Alanine mutant of HuHtrA1_PD; also called HuHtrA1 mutant T223A; not shown: thrombin cleavage site
T8 chain: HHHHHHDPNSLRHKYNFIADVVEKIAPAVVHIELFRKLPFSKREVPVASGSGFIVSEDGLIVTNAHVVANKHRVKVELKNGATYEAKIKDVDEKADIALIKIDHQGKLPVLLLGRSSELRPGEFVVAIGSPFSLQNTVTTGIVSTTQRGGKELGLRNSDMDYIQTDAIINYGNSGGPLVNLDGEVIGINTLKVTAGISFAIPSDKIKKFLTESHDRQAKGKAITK
On the procedure:
as §1, §2

In another experiment the target is T9, HuHtrA1_PD(K225A) (human, UniProt F1N152 168-386 (bovine entry)).
T9 construct: Alanine mutant of HuHtrA1_PD; also called HuHtrA1 mutant K225A; not shown: thrombin cleavage site
T9 chain: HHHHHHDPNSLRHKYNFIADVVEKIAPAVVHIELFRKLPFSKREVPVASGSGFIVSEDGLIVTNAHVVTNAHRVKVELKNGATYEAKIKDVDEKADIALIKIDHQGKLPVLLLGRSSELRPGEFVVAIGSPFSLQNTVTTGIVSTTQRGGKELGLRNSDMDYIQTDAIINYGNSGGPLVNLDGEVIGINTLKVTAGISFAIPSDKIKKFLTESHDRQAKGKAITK
On the procedure:
as §1, §2

A further experiment has as its target T10, HuHtrA1_PD(K243A) (human, UniProt F1N152 168-386 (bovine entry)).
T10 construct: Alanine mutant of HuHtrA1_PD; also called HuHtrA1 mutant K243A; not shown: thrombin cleavage site
T10 chain: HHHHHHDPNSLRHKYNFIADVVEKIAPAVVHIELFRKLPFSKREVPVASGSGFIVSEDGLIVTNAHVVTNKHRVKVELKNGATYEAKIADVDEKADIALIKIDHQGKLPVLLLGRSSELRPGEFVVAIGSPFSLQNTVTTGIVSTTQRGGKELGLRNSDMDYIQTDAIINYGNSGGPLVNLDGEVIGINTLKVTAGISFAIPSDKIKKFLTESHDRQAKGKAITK
On the procedure: as §1, §2

B1: Fab94 (anti-HtrA1 antibody YW505.94, Fab format) (Fab, V domains shown)
VH: EVQLVESGGGLVQPGGSLRLSCAASGFNISGYYIHWVRQAPGKGLEWVGWIDPYGGDTNYADSVKGRFTISADTSKNTAYLQMNSLRAEDTAVYYCARGTFLTSWGHYFDYWGQGT
VL: DIQMTQSPSSLSASVGDRVTITCRASQDVSTAVAWYQQKPGKAPKLLIYSASFLYSGVPSRFSGSGSGTDFTLTISSLQPEDFATYYCQQSYTTPPTFGQGTKVEIKR
Consider B1, for which the concentration giving a half-maximal response (EC50) was determined as 135 nM in the experiment with N224A; 25.9 nM with R227A; 5.4 nM with E239A; 23 nM with K241A; 4.7 nM with D244A; 7.7 nM with Y325A. The EC50 in the experiment with HuHtrA1_PD(V201A) turned out to be 112 nM; with HuHtrA1_PD(T223A), 62.9 nM; in the experiment with HuHtrA1_PD(K225A), 52.2 nM; with HuHtrA1_PD(K243A) it was 64.9 nM. The “Relative to WT EC50 Fold Decrease” value with N224A worked out at 24 fold; in the experiment with R227A, 4.6 fold; in the experiment with E239A, 0.9 fold; in the experiment with K241A, 4.1 fold; in the experiment with D244A it was 0.8 fold; with Y325A, 1.4 fold. The “Relative to WT EC50 Fold Decrease” value with HuHtrA1_PD(V201A) came out at 20 fold; with HuHtrA1_PD(T223A) it was 11.2 fold; with HuHtrA1_PD(K225A) it was 9.3 fold; in the experiment with HuHtrA1_PD(K243A), 11.6 fold.
